How the values were obtained:
[1] = molecular target: Cry1Ab receptor sites located in BBMV's (brush border membrane vesicles) from Ostrinia nubilalis larval midgut (Ostrinia nubilalis); assay: heterologous radioligand competition, unlabeled DIG-3 against 0.5 nM 125I Cry1Ab on O. nubilalis BBMVs
[2] = molecular target: Cry1Ab receptor sites located in BBMV's (brush border membrane vesicles) from Ostrinia nubilalis larval midgut (Ostrinia nubilalis); assay: homologous radioligand competition, unlabeled Cry1Ab against 0.5 nM 125I Cry1Ab on O. nubilalis BBMVs

Substance	percent displacement of 125I Cry1Ab binding at 300 nM DIG-3 [1]	IC50 [2]
DIG-3 toxin, trypsin activated (unlabeled heterologous competitor)	25%	
Cry1Ab toxin, trypsin activated, non-radioactive (unlabeled homologous competitor) (from UniProt P0A370 29-607)		0.5 nM
